Test results taken from PMC6272748, “Cysteine Specific Targeting of the Functionally Distinct Peroxiredoxin and Glutaredoxin Proteins by the Investigational Disulfide BNP7787” (Molecules, 2015).

Biological target: the molecule itself
Test: crystal structure; co-crystal of BNP7787-modified Prx 4 from 1.6 M ammonium sulfate, 0.1 M MES pH 6.5, 10% dioxane; 2.3 Å, space group C2; five molecules in the asymmetric unit, decamer generated by crystal symmetry

B1: human peroxiredoxin 4 (Prx 4) carrying a BNP7787-derived mesna adduct (enzyme, UniProt Q13162 79-271, looked up)
chain: AKISKPAPYWEGTAVIDGEFKELKLTDYRGKYLVFFFYPLDFTFVCPTEIIAFGDRLEEFRSINTEVVACSVDSQFTHLAWINTPRRQGGLGPIRIPLLSDLTHQISKDYGVYLEDSGHTLRGLFIIDDKGILRQITLNDLPVGRSVDETLRLVQAFQYTDKHGEVCPAGWKPGSETIIPDPAGKLKYFDKLN
modifications: BNP7787-derived mesna mixed disulfide on Cys 124 (in all molecules of the decamer); whole protein mass spectrometry consistent with two mesna adducts, the second proposed on Cys 245 (not visible in the electron density)
notes: Peroxiredoxin 4, human, wild type; No density beyond residue 242 in the crystal; TEV cleavage is described only for Grx 1; also called Prx IV; BNP7787-modified Prx 4; source: E. coli BL21(RIPL), purified (Ni2+ IMAC, size exclusion), reduced with DTT, then incubated with 40 mM BNP7787; copies: 10
With B1 the “stoichiometry N” value was 10.
